Data set [1] deals with p53 (wild type) (UniProt P02340). In words: cell_activity.
In data set [2] the target is p53as (alternatively spliced p53) (Mus musculus) (UniProt P02340). In words: cell_activity.
Where [3] appears, read: luciferase reporter, mouse (10)1 cells.
Where [4] appears, read: CAT reporter, human Saos-2 cells.

Regarding WAF-1 promoter (WWP-1 luciferase), the activity in data set [1] (setting [3]) was found to be 15 fold; in data set [2] (setting [3]) it was 14 fold.

As to “PG13 CAT reporter, 13 repeats of p53-binding site”, the activity in data set [1] (setting [4]) was determined as 14 fold; in data set [2] (setting [4]) it was 9 fold.

(Values after patent publication US5726024.)
